Source: patent publication US20230137032A1 (GlaxoSmithKline, published 2023)

Assays:
[1] = target: T1, recombinant human BCMA, in house material (human, UniProt Q02223 4-53, limits assumed); assay: ProteOn SPR run 1, antibody captured on Protein A, 25C
T1 construct: also called Human in house BCMA; In house human BCMA

[2] = target: T2, recombinant cyno BCMA, in house material (cyno, UniProt A0A2K5UD97 4-52); assay: as above
T2 construct: also called Cyno in house BCMA
T2 sequence (A0A2K5UD97 entry or part of it): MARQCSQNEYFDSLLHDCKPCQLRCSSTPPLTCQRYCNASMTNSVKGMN

T1 sequence (Q02223 4-53 limits assumed): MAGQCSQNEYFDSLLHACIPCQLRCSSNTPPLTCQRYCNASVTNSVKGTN

Row | Binder | Kd [1] [nM] | Kd [2] [nM] | binding result [2] | binding result [1]
1 | CA8 humanised J2M2 (antibody, human IgG1, kappa, V domains shown, Humanised CA8, heavy chain J2 with light chain M2, human IgG1 kappa; also called CA8 J2M2) VH: QVQLVQSGAEVKKPGSSVKVSCKASGYTFTNYWMHWVRQAPGQGLEWMGATYRGHSDTYYNQKFKGRVTITADKSTSTAYMELSSLRSEDTAVYYCTRGAIYNGYDVLDNWGQGTLVTVSS VL: DIQLTQSPSSLSASVGDRVTITCSASQDISNYLNWYQQKPGKAPELVIYYTSNLHSGVPSRFSGSGSGTDYTLTISSLQPEDFATYYCQQYRKLPWTFGQGTKLEIKR | 0.482 | 0.106 | – | –
2 | S307118G03 humanised H3L1 (antibody, human IgG1, kappa, V domains shown, Humanised, human IgG1 kappa) VH: QVQLVQSGAEVKKPGSSVKVSCKASGYTFTDYYMKWVRQAPGQGLEWIGEIYPNNGGITYNQKFKGRATLTVDKSTSTAYMELSSLRSEDTAVYYCANGYEFVYWGQGTLVTVSS VL: DIQMTQSPSSLSASVGDRVTITCSASQGISNYLNWYQQKPGKAPKLLIYYTSSLHSGVPSRFSGSGSGTDYTLTISSLQPEDFATYYCQQYSKLPWTFGQGTKLEIKR | 4.86 | – | no binding | –
3 | CA8 humanised J5M2 (antibody, human IgG1, kappa, V domains shown, Humanised CA8, heavy chain J5 with light chain M2, human IgG1 kappa; also called CA8 J5M2) VH: QVQLVQSGAEVKKPGSSVKVSCKGSGYTFTNYWMHWVRQAPGQGLEWMGATYRGHSDTYYNQKFKGRVTITADTSTSTAYMELSSLRSEDTAVYYCTRGAIYDGYDVLDNWGQGTLVTVSS VL: DIQLTQSPSSLSASVGDRVTITCSASQDISNYLNWYQQKPGKAPELVIYYTSNLHSGVPSRFSGSGSGTDYTLTISSLQPEDFATYYCQQYRKLPWTFGQGTKLEIKR | 0.12 | 0.109 | – | –
4 | CA8 humanised J4M0 (antibody, human IgG1, kappa, V domains shown, Humanised CA8, heavy chain J4 with light chain M0, human IgG1 kappa; also called CA8 J4M0) VH: QVQLVQSGAEVKKPGSSVKVSCKGSGYTFTNYWMHWVRQAPGQGLEWIGATYRGHSDTYYNQKFKGRATLTADTSTSTAYMELSSLRSEDTAVYYCTRGAIYNGYDVLDNWGQGTLVTVSS VL: DIQMTQSPSSLSASVGDRVTITCSASQDISNYLNWYQQKPGKAPKLLIYYTSNLHSGVPSRFSGSGSGTDFTLTISSLQPEDFATYYCQQYRKLPWTFGQGTKLEIKR | 0.906 | 0.866 | – | –
5 | S307118G03 humanised H2L1 (antibody, human IgG1, kappa, V domains shown, Humanised, human IgG1 kappa) VH: QVQLVQSGAEVKKPGSSVKVSCKASGYTFTDYYMKWVRQAPGQGLEWMGEIYPNNGGITYNQKFKGRVTITADKSTSTAYMELSSLRSEDTAVYYCANGYEFVYWGQGTLVTVSS VL: DIQMTQSPSSLSASVGDRVTITCSASQGISNYLNWYQQKPGKAPKLLIYYTSSLHSGVPSRFSGSGSGTDYTLTISSLQPEDFATYYCQQYSKLPWTFGQGTKLEIKR | 6.37 | – | no binding | –
6 | CA8 humanised J3M0 (antibody, human IgG1, kappa, V domains shown, Humanised CA8, heavy chain J3 with light chain M0, human IgG1 kappa; also called CA8 J3M0) VH: QVQLVQSGAEVKKPGSSVKVSCKGSGYTFTNYWMHWVRQAPGQGLEWMGATYRGHSDTYYNQKFKGRVTITADTSTSTAYMELSSLRSEDTAVYYCTRGAIYNGYDVLDNWGQGTLVTVSS VL: DIQMTQSPSSLSASVGDRVTITCSASQDISNYLNWYQQKPGKAPKLLIYYTSNLHSGVPSRFSGSGSGTDFTLTISSLQPEDFATYYCQQYRKLPWTFGQGTKLEIKR | 1.37 | 0.526 | – | –
7 | CA8 humanised J5M0 (antibody, human IgG1, kappa, V domains shown, Humanised CA8, heavy chain J5 with light chain M0, human IgG1 kappa; also called CA8 J5M0) VH: QVQLVQSGAEVKKPGSSVKVSCKGSGYTFTNYWMHWVRQAPGQGLEWMGATYRGHSDTYYNQKFKGRVTITADTSTSTAYMELSSLRSEDTAVYYCTRGAIYDGYDVLDNWGQGTLVTVSS VL: DIQMTQSPSSLSASVGDRVTITCSASQDISNYLNWYQQKPGKAPKLLIYYTSNLHSGVPSRFSGSGSGTDFTLTISSLQPEDFATYYCQQYRKLPWTFGQGTKLEIKR | 0.087 | 0.025 | – | –
8 | CA8 humanised J4M2 (antibody, human IgG1, kappa, V domains shown, Humanised CA8, heavy chain J4 with light chain M2, human IgG1 kappa; also called CA8 J4M2) VH: QVQLVQSGAEVKKPGSSVKVSCKGSGYTFTNYWMHWVRQAPGQGLEWIGATYRGHSDTYYNQKFKGRATLTADTSTSTAYMELSSLRSEDTAVYYCTRGAIYNGYDVLDNWGQGTLVTVSS VL: DIQLTQSPSSLSASVGDRVTITCSASQDISNYLNWYQQKPGKAPELVIYYTSNLHSGVPSRFSGSGSGTDYTLTISSLQPEDFATYYCQQYRKLPWTFGQGTKLEIKR | 0.281 | 0.179 | – | –
9 | S307118G03 humanised H4L1 (antibody, human IgG1, kappa, V domains shown, Humanised, human IgG1 kappa) VH: QVQLVQSGAEVKKPGSSVKVSCKASGYTFTDYYMKWVRQAPGQGLEWMGEIYPNNGGITYNQKFKGRVTITADKSTSTAYMELSSLRSEDTAVYYCADGYEFVYWGQGTLVTVSS VL: DIQMTQSPSSLSASVGDRVTITCSASQGISNYLNWYQQKPGKAPKLLIYYTSSLHSGVPSRFSGSGSGTDYTLTISSLQPEDFATYYCQQYSKLPWTFGQGTKLEIKR | – | – | no binding | no binding (tested: up to 256 nM)
10 | S307118G03 humanised H3L0 (antibody, human IgG1, kappa, V domains shown, Humanised, human IgG1 kappa) VH: QVQLVQSGAEVKKPGSSVKVSCKASGYTFTDYYMKWVRQAPGQGLEWIGEIYPNNGGITYNQKFKGRATLTVDKSTSTAYMELSSLRSEDTAVYYCANGYEFVYWGQGTLVTVSS VL: DIQMTQSPSSLSASVGDRVTITCSASQGISNYLNWYQQKPGKAPKLLIYYTSSLHSGVPSRFSGSGSGTDFTLTISSLQPEDFATYYCQQYSKLPWTFGQGTKLEIKR | 5.31 | – | no binding | –
11 | CA8 humanised J4M1 (antibody, human IgG1, kappa, V domains shown, Humanised CA8, heavy chain J4 with light chain M1, human IgG1 kappa; also called CA8 J4M1) VH: QVQLVQSGAEVKKPGSSVKVSCKGSGYTFTNYWMHWVRQAPGQGLEWIGATYRGHSDTYYNQKFKGRATLTADTSTSTAYMELSSLRSEDTAVYYCTRGAIYNGYDVLDNWGQGTLVTVSS VL: DIQMTQSPSSLSASVGDRVTITCSASQDISNYLNWYQQKPGKAPKLLIYYTSNLHSGVPSRFSGSGSGTDYTLTISSLQPEDFATYYCQQYRKLPWTFGQGTKLEIKR | 0.278 | 0.203 | – | –
12 | CA8 humanised J5M1 (antibody, human IgG1, kappa, V domains shown, Humanised CA8, heavy chain J5 with light chain M1, human IgG1 kappa; also called CA8 J5M1) VH: QVQLVQSGAEVKKPGSSVKVSCKGSGYTFTNYWMHWVRQAPGQGLEWMGATYRGHSDTYYNQKFKGRVTITADTSTSTAYMELSSLRSEDTAVYYCTRGAIYDGYDVLDNWGQGTLVTVSS VL: DIQMTQSPSSLSASVGDRVTITCSASQDISNYLNWYQQKPGKAPKLLIYYTSNLHSGVPSRFSGSGSGTDYTLTISSLQPEDFATYYCQQYRKLPWTFGQGTKLEIKR | 0.145 | 0.112 | – | –
13 | CA8 humanised J3M1 (antibody, human IgG1, kappa, V domains shown, Humanised CA8, heavy chain J3 with light chain M1, human IgG1 kappa; also called CA8 J3M1) VH: QVQLVQSGAEVKKPGSSVKVSCKGSGYTFTNYWMHWVRQAPGQGLEWMGATYRGHSDTYYNQKFKGRVTITADTSTSTAYMELSSLRSEDTAVYYCTRGAIYNGYDVLDNWGQGTLVTVSS VL: DIQMTQSPSSLSASVGDRVTITCSASQDISNYLNWYQQKPGKAPKLLIYYTSNLHSGVPSRFSGSGSGTDYTLTISSLQPEDFATYYCQQYRKLPWTFGQGTKLEIKR | 0.438 | 0.196 | – | –
14 | S307118G03 humanised H2L0 (antibody, human IgG1, kappa, V domains shown, Humanised, human IgG1 kappa) VH: QVQLVQSGAEVKKPGSSVKVSCKASGYTFTDYYMKWVRQAPGQGLEWMGEIYPNNGGITYNQKFKGRVTITADKSTSTAYMELSSLRSEDTAVYYCANGYEFVYWGQGTLVTVSS VL: DIQMTQSPSSLSASVGDRVTITCSASQGISNYLNWYQQKPGKAPKLLIYYTSSLHSGVPSRFSGSGSGTDFTLTISSLQPEDFATYYCQQYSKLPWTFGQGTKLEIKR | 6.36 | – | no binding | –
15 | CA8 humanised J3M2 (antibody, human IgG1, kappa, V domains shown, Humanised CA8, heavy chain J3 with light chain M2, human IgG1 kappa; also called CA8 J3M2) VH: QVQLVQSGAEVKKPGSSVKVSCKGSGYTFTNYWMHWVRQAPGQGLEWMGATYRGHSDTYYNQKFKGRVTITADTSTSTAYMELSSLRSEDTAVYYCTRGAIYNGYDVLDNWGQGTLVTVSS VL: DIQLTQSPSSLSASVGDRVTITCSASQDISNYLNWYQQKPGKAPELVIYYTSNLHSGVPSRFSGSGSGTDYTLTISSLQPEDFATYYCQQYRKLPWTFGQGTKLEIKR | 0.362 | 0.159 | – | –
